Experiments:
FnCas12a ΔBH/Δh1 [1] = molecular target: T1, FnCas12a ΔBH/Δh1 (Francisella novicida, UniProt A0Q7Q2 1-1300, del953-1000); assay: EMSA
FnCas12a ΔBH [2] = molecular target: T2, FnCas12a ΔBH (Francisella novicida, UniProt A0Q7Q2 1-1300, del953-969); assay: EMSA
FnCas12a Δh1 [3] = molecular target: T3, FnCas12a Δh1 (Francisella novicida, UniProt A0Q7Q2 1-1300, del972-1000); assay: EMSA
FnCas12a ΔBH/Δh1 [4] = molecular target: T1, FnCas12a ΔBH/Δh1; assay: EMSA; remark: listed apart in the source
FnCas12a ΔBH [5] = molecular target: T2, FnCas12a ΔBH; assay: EMSA; remark: listed apart in the source
FnCas12a ΔΔBH = FnCas12a ΔΔBH (Francisella novicida, UniProt A0Q7Q2 1-1300, del953-971); assay: EMSA
FnCas12a Δh1 [6] = molecular target: T3, FnCas12a Δh1; assay: EMSA; remark: listed apart in the source
FnCas12a WT = FnCas12a WT (Francisella novicida, UniProt A0Q7Q2 1-1300); assay: mass photometry

## AAUUUCUACUGUUGUAGAUGUGAUAAGUGGAAUGCCAUGUGGG (structured_RNA) [crRNA-Cy5 (43 nt)]
FnCas12a ΔBH/Δh1 [1]
  binding signal: 22.9 % of WT
FnCas12a ΔBH [2]
  binding signal: ~50 % of WT
FnCas12a Δh1 [3]
  binding signal: 10.7 % of WT

B1: crRNA + 58 bp target DNA MM 0 (labeled) (mixed)
RNA: AAUUUCUACUGUUGUAGAUGUGAUAAGUGGAAUGCCAUGUGGG
DNA 1: ACTCAATTTTGACAGCCCACATGGCATTCCACTTATCACTAAAGGCATCCTTCCACGT
DNA 2: ACGTGGAAGGATGCCTTTAGTGATAAGTGGAATGCCATGTGGGCTGTCAAAATTGAGT
FnCas12a ΔBH/Δh1 [4]
  binding result: no binding
FnCas12a ΔBH [5]
  binding result: binds
FnCas12a ΔΔBH
  binding result: no binding
FnCas12a Δh1 [6]
  binding result: no binding

## AAUUUCUACUGUUGUAGAUGUGAUAAGUGGAAUGCCAUGUGGG (structured_RNA) [crRNA (43 nt)]
FnCas12a WT
  binding result: binds
